The source of these data is US7514534 (DYAX, dated 2009).

T1: MMP-26 catalytic domain, tagged with hexa-histidine (human, UniProt Q9NRE1 90-261)
T1 construct: the forward primer adds Met-Ala before it; also called MMP-26 target protein; Matrilysin-2; not shown: Also any N-terminal residues added by the forward primer (Met-Ala according to our card; the primers were not visible to me)
T1 sequence: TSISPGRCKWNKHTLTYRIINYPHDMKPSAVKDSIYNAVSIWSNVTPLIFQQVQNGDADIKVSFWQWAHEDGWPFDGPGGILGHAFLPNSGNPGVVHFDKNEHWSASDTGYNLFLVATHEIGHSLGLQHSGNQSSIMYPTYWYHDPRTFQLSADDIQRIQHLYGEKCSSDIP

B1: A08 (antibody, human IgG4, V domains shown)
VH: EVQLLESGGGLVQPGGSLRLSCAASGFTFSVYDMPWVRQAPGKGLEWVSVIYPSGGFTRYADSVKGRFTISRDNSKNTLYLQMNSLRAEDTAVYYCAADPTIQLWAYYYGMDVWGQGTTVTVSS
VL: QSVLTQPPSVSGTPGQRVTISCSGGYPNMGSNYAHWYQQLPGTAPKLLIYNDNQRPSGVPDRFSGSKSGTSASLAISGLRSEDEADYYCAAWDDSLSGPVFGGGTKLTVLG
notes: whole human IgG4
B2: A05 (antibody, human IgG4, V domains shown)
VH: EVQLLESGGGLVQPGGSLRLSCAASGFTFSVYSMNWVRQAPGKGLEWVSYIVPSGGNTPYADSVKGRFTISRDNSKNTLYLQMNSLRAEDTAVYYCARDGAATVDLDYWGQGTLVTVSS
VL: DIQMTQSPSSLSLSPGERATLSCRASQSVSSYLAWYQQKPGQAPRLLIYDASNRATGIPARFSGSGSGTDFTLTISSLEPEDFAVYYCQQRSNWPRTFGGGTKVEIKR
notes: whole human IgG4
B3: A06 (antibody, human IgG4, V domains shown)
VH: EVQLLESGGGLVQPGGSLRLSCAASGFTFSPYHMGWVRQAPGKGLEWVSGIYPSGGWTNYADSVKGRFTISRDNSKNTLYLQMNSLRAEDTAVYYCARDGYSSGWFRYWGQGTLVTVSS
VL: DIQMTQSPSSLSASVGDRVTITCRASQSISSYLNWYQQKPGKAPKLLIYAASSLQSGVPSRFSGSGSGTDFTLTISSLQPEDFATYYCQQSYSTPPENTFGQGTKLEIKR
notes: whole human IgG4
B4: A07 (antibody, human IgG4, V domains shown)
VH: EVQLLESGGGLVQPGGSLRLSCAASGFTFSEYNMMWVRQAPGKGLEWVSVISPSGGGTLYADSVKGRFTISRDNSKNTLYLQMNSLRAEDTAVYYCARDLNNSSPPDSNDAFDIWGRGTMVTVSS
VL: QSELTQPPSASGSPGQSVTISCTGTSSDVGGYNYVSWYQQHPDKAPKLLIYEVTQRPSGVPDRFSGSRSGNTASLTVSGLQAEDEADYYCSSYAGRNNLYVFGPGTKVTVLG
notes: whole human IgG4
B5: D09 (antibody, V domains shown)
VH: EVQLLESGGGLVQPGGSLRLSCAASGFTFSHYNMHWVRQAPGKGLEWVSGIVSSGGNTGYADSVKGRFTISRDNSKNTLYLQMNSLRAEDTAVDYCARVVRYSSGWYYWFDPWGQGTLVTVSS
VL: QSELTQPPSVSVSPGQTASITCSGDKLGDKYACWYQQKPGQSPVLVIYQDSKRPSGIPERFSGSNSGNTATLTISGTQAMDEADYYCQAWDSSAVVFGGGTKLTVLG
notes: whole human IgG4
B6: D08 (antibody, human IgG4, V domains shown)
VH: EVQLLESGGGLVQPGGSLRLSCAASGFTFSFYAMWWVRQAPGKGLEWVSRIYSSGGKTWYADSVKGRFTISRDNSKNTLYLQMNSLRAEDTAVYYCARVGMSTYAFDIWGQGTMVTVSS
VL: DIQMTQSPSSLSASVGDRVTITCRASQSISDYLNWYQQKPGKAPDLLIYAASSLQSGVPSRFSGSGSGTDFTLTVSSLQPEDFATYFCQQSYSIPLTFGGGTKVEITR
notes: whole human IgG4
B7: A09 (antibody, human IgG4, V domains shown)
VH: EVQLLESGGGLVQPGGSLRLSCAASGFTFSWYDMYWVRQAPGKGLEWVSSIYSSGGYTAYADSVKGRFTISRDNSKNTLYLQMNSLRAEDTAVYYCAKDRDPCSRTTCYNWFDPWGQGTLVTVSS
VL: QSELTQPPSASGTPGQRVTISCSGGSSNIGSNFVYWYRQLPGTAPKLLIYRNYQRPSGVPDRFSGSKSGTSASLAISGLLSEDEADYYCAAWDDNVGGVFGSGTKVTVLG
notes: whole human IgG4

T2 sequence (P08254 100-477 limits assumed): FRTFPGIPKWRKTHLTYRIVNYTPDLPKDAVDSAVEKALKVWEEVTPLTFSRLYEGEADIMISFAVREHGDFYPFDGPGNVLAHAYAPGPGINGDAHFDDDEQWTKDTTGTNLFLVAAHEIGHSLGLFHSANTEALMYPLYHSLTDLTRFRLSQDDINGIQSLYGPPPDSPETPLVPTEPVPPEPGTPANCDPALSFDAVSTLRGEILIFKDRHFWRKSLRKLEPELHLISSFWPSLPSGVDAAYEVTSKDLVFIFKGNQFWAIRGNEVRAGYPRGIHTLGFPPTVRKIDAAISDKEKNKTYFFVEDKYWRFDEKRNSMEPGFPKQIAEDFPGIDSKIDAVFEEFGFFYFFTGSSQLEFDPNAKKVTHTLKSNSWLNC
T3 sequence (P14780 107-707 limits assumed): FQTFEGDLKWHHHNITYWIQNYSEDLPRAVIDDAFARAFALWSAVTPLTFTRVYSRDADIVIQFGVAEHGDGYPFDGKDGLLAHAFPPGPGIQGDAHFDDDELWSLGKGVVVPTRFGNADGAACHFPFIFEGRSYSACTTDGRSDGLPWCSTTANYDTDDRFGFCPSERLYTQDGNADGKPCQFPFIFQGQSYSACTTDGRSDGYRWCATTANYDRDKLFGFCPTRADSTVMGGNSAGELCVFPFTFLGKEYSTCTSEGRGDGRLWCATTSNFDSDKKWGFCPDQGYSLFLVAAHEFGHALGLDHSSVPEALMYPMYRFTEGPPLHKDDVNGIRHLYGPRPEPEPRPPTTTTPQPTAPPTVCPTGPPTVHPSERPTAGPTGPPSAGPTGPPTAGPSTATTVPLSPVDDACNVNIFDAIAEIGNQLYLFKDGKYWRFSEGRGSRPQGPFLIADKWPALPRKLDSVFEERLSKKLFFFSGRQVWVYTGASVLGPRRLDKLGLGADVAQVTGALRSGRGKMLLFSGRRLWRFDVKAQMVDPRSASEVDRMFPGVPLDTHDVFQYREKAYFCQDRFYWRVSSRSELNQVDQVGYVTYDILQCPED

One assay has as its target T2, MMP-3 (UniProt P08254 100-477, limits assumed).
T2 construct: also called stromelysin-1
Briefly: cross-reactivity ELISA on coated MMP. A general note: ELISA stands for enzyme-linked immunosorbent assay.
Regarding B1, the binding result is “no binding (tested: 2 µg/ml)”.
Still for that read-out and setting: in the case of B2 it was “no binding (tested: 2 µg/ml)”; in that of B3, “no binding (tested: 2 µg/ml)”; in that of B4, “no binding (tested: 2 µg/ml)”.
In the case of B5, the binding result is recorded as “no binding (tested: 2 µg/ml)”.
With B6, the binding result is listed as “no binding (tested: 2 µg/ml)”.
B7: the binding result is listed as “no binding (tested: 2 µg/ml)”.

The next assay has as its target T3, MMP-9 (UniProt P14780 107-707, limits assumed).
T3 construct: also called gelatinase
Put plainly: cross-reactivity ELISA on coated MMP.
As for B1, the binding result is given as “no binding (tested: 2 µg/ml)”.
Regarding B2, the binding result is “no binding (tested: 2 µg/ml)”.
As for B3, the binding result was “no binding (tested: 2 µg/ml)”.
In the case of B4, the binding result is listed as “no binding (tested: 2 µg/ml)”.
In the case of B5, the binding result is reported as “no binding (tested: 2 µg/ml)”.
On the same count and under the same terms, with B6 the entry was “no binding (tested: 2 µg/ml)”.
For B7, the binding result was “no binding (tested: 2 µg/ml)”.

Another assay concerns the target T1, MMP-26 catalytic domain, tagged with …. Put plainly: bead-based ELISA, MMP-26 on nickel beads, IgG4 culture supernatant.
Turning to B1, the “F > B (fold over background)” value turned out to be 1.94 fold over background.
On the same count and under the same terms, with B2 the figure was 2.48 fold over background; with B3, 5.4 fold over background; with B4, 8.38 fold over background.
Turning to B5, the “F > B (fold over background)” value stood at 4.3 fold over background.
On to B6, for which the “F > B (fold over background)” value stood at 3 fold over background.
Take B7: the “F > B (fold over background)” value came out at 2.5 fold over background.
